In publication PMC6771040, “Bispecific GRPR-Antagonistic Anti-PSMA/GRPR Heterodimer for PET and SPECT Diagnostic Imaging of Prostate Cancer” (Cancers, 2019):

Tests used:
[1] = system: PC3-PIP xenografts (PSMA and GRPR expressing); experiment: in vivo; parameters: species or system BALB/c nu/nu mice; details: female, BALB/c nu/nu, mouse, iv, 50 pmol/mouse
Description: (§1) All animal experiments were planned and performed in accordance with the Swedish national legislation on the protection of laboratory animals and the study plans were approved by the Ethics Committee for Animal Research in Uppsala. Euthanasia was performed by the intraperitoneal injection of a ketamine-xylazine (Ketalar-Rompun) solution (200 mg/kg ketamine/Ketalar and 20 mg/kg xylazine/Rompun), and all efforts were made to minimize suffering. Prior to implantation, female outbred BALB/c nu/nu mice (n = 30) were quarantined for 1 week. The average animal weight at the time of the experiment was 16 ± 1 g. Xenografts expressing both PSMA and GRPR were established by the subcutaneous injection of ~0.8 × 10^7 PC3-PIP cells/mouse. Tumors were grown for 7 days and the average tumor weight at the time of the experiment was 0.3 ± 0.1 g. Before the experiments, animals were randomized into groups of four. Blood, salivary glands, lung, liver, spleen, pancreas, stomach, small intestines, kidneys, muscle, bone, and tumor samples were collected for radioactivity measurements. The gastrointestinal tract with content and the rest of the carcass were also collected. The activity of samples was measured together with the injection standard.
(§2) To evaluate the biodistribution over time, three groups of mice were intravenously co-injected through the tail vein with ^111In-6 and ^68Ga-6 (300 kBq for ^68Ga-6 and 40 kBq for ^111In-6) and sacrificed 1, 3, and 24 h pi. The total injected peptide mass was adjusted to 50 pmol/mouse.

[2] = in vivo; parameters: species or system BALB/c nu/nu mice; details: female, BALB/c nu/nu, mouse, iv, 50 pmol/mouse, total radioactivity, Tumor-to-organ ratio
Description: as §1, §2

[3] = system: PSMA; details: 1 h pi; cited from earlier work
[4] = biological target: T1, PSMA (Homo sapiens, UniProt Q04609); experiment: Competitive binding assay (IC50) towards PSMA on PC3-PIP cells
T1 construct: expressed in transfected cells; host or cells: PC3-PIP cells (PC-3 derived, kept under puromycin selection; obtained from Dr. Warren Heston, Cleveland Clinic)
T1 sequence (Q04609 whole entry): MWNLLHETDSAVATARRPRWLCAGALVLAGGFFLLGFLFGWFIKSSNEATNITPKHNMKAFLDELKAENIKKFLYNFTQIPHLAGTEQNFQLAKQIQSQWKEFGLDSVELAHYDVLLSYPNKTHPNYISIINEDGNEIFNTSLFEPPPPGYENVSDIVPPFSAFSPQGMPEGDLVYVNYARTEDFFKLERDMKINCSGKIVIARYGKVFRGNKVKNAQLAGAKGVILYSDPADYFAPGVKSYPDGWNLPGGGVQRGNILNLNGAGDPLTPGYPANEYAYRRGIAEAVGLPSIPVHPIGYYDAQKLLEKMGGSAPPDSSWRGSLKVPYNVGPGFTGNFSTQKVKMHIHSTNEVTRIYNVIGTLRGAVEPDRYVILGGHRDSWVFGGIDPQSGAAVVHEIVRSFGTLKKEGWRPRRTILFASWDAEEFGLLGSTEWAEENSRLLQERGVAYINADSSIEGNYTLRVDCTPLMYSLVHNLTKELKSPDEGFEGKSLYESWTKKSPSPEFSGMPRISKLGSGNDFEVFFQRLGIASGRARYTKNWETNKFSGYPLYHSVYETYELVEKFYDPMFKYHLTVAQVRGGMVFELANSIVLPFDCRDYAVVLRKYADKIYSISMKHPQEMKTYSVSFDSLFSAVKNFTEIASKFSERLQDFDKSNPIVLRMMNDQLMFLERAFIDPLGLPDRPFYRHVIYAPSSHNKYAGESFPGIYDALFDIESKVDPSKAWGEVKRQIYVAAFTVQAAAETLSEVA
Description: (§3) The half-maximal inhibitory concentration (IC50) values towards PSMA and GRPR were determined for ^natIn-6 using PC3-PIP cells. ^111In-PSMA-617 was used as a displacement radioligand for PSMA and ^111In-DOTA-PEG2-RM26 was used for GRPR, respectively. Due to the presence of both targets on PC3-PIP cells, in each experiment, the secondary target was blocked with either 1 mM solution of NOTA-PEG6-RM26 or 2 mM PSMA-11. For comparison, the IC50 values were determined for the corresponding monomers towards PSMA and GRPR under the same experimental conditions. Briefly, cell monolayers were incubated with the radioligand (1 nM) at 4 °C for 5 h in the presence of increasing concentrations of ^natIn-loaded conjugates (0–540 nM for GRPR-targeting analogs, and 0–7500 nM for PSMA-targeting, respectively). Following incubation, cells were collected and the cell-associated radioactivity was measured in an automated gamma-counter. The IC50 values were calculated by nonlinear regression using GraphPad Prism software (GraphPad Software Inc., San Diego, CA, USA).

[5] = biological target: GRPR (Homo sapiens, UniProt P30550)
Sequence of GRPR (P30550 whole entry): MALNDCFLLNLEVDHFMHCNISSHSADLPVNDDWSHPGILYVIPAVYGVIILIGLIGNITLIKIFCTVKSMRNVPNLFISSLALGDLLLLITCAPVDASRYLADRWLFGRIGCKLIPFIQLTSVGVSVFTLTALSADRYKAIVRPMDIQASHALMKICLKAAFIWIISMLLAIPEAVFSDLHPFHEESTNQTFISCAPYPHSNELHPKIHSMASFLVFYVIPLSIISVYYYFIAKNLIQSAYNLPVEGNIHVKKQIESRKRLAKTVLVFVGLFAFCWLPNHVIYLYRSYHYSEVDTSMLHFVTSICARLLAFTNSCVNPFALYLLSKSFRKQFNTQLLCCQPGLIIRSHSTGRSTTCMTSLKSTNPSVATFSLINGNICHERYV
Description: as §3

SMILES: CC(C)C[C@H](NC(=O)C[C@H](O)[C@H](CC(C)C)NC(=O)[C@H](Cc1c[nH]cn1)NC(=O)CNC(=O)[C@@H](NC(=O)[C@H](C)NC(=O)[C@H](Cc1c[nH]c2ccccc12)NC(=O)[C@H](CCC(N)=O)NC(=O)[C@@H](Cc1ccccc1)NC(=O)CCOCCOCCOCCOCCOCCOCCNC(=O)[C@H](CCCCNC(=O)CN1CCN(CC(=O)O)CCN(CC(=O)O)CC1)NC(=O)CCCCCCCNC(=O)CC[C@H](NC(=O)N[C@@H](CCC(=O)O)C(=O)O)C(=O)O)C(C)C)C(N)=O [68Ga-6, metal not drawn]
- Tumor-to-organ ratio, Blood ([1]; 1 h): 24±3
- Tumor-to-organ ratio, Bone ([1]; 1 h): 30±11
- Tumor-to-organ ratio, Kidneys ([1]; 1 h): 1.2±0.1
- Tumor-to-organ ratio, Liver ([1]; 1 h): 5.9±0.9
- Tumor-to-organ ratio, Lung ([1]; 1 h): 15±3
- Tumor-to-organ ratio, Muscle ([1]; 1 h): 78±28
- Tumor-to-organ ratio, Pancreas ([1]; 1 h): 4.4±0.6
- Tumor-to-organ ratio, Salivary glands ([1]; 1 h): 43±8
- Tumor-to-organ ratio, Small intestine ([1]; 1 h): 11±3
- Tumor-to-organ ratio, Spleen ([1]; 1 h): 16±4
- Tumor-to-organ ratio, Stomach ([1]; 1 h): 10±4
- Tumor-to-organ ratio, Blood ([1]; 3 h): 44±6
- Tumor-to-organ ratio, Bone ([1]; 3 h): 67±21
- Tumor-to-organ ratio, Kidneys ([1]; 3 h): 0.9±0.2
- Tumor-to-organ ratio, Liver ([1]; 3 h): 4±1
- Tumor-to-organ ratio, Lung ([1]; 3 h): 28±17
- Tumor-to-organ ratio, Muscle ([1]; 3 h): 128±57
- Tumor-to-organ ratio, Pancreas ([1]; 3 h): 18±6
- Tumor-to-organ ratio, Salivary glands ([1]; 3 h): 43±8
- Tumor-to-organ ratio, Small intestine ([1]; 3 h): 33±27
- Tumor-to-organ ratio, Spleen ([1]; 3 h): 11±1
- Tumor-to-organ ratio, Stomach ([1]; 3 h): 45±39

SMILES: CC(C)C[C@H](NC(=O)C[C@H](O)[C@H](CC(C)C)NC(=O)[C@H](Cc1c[nH]cn1)NC(=O)CNC(=O)[C@@H](NC(=O)[C@H](C)NC(=O)[C@H](Cc1c[nH]c2ccccc12)NC(=O)[C@H](CCC(N)=O)NC(=O)[C@@H](Cc1ccccc1)NC(=O)CCOCCOCCOCCOCCOCCOCCNC(=O)[C@H](CCCCNC(=O)CN1CCN(CC(=O)O)CCN(CC(=O)O)CC1)NC(=O)CCCCCCCNC(=O)CC[C@H](NC(=O)N[C@@H](CCC(=O)O)C(=O)O)C(=O)O)C(C)C)C(N)=O [111In-6, metal not drawn]
- Tumor-to-organ ratio, Bone ([1]; 1 h): 75±50
- Tumor-to-organ ratio, Liver ([1]; 1 h): 22±4
- Tumor-to-organ ratio, Lung ([1]; 1 h): 32±3
- Tumor-to-organ ratio, Spleen ([1]; 1 h): 44±6
- Tumor-to-organ ratio, Blood ([1]; 3 h): 115±13
- Tumor-to-organ ratio, Liver ([1]; 3 h): 20±2
- Tumor-to-organ ratio, Lung ([1]; 3 h): 64±30
- Tumor-to-organ ratio, Salivary glands ([1]; 3 h): 93±10
- Tumor-to-organ ratio, Spleen ([1]; 3 h): 59±16
- tissue to tissue ratio at 1 h ([2]; Blood): 30 ± 4
- tissue to tissue ratio at 24 h ([2]; Blood): 192 ± 66
- tissue to tissue ratio at 3 h ([2]; Bone): 52 ± 22
- tissue to tissue ratio at 24 h ([2]; Bone): 19 ± 15
- tissue to tissue ratio at 1 h ([2]; Kidneys): 1.2 ± 0.2
- tissue to tissue ratio at 3 h ([2]; Kidneys): 1.4 ± 0.2
- tissue to tissue ratio at 24 h ([2]; Kidneys): 0.6 ± 0.1
- tissue to tissue ratio at 24 h ([2]; Liver): 4.8 ± 0.8
- tissue to tissue ratio at 24 h ([2]; Lung): 34 ± 11
- tissue to tissue ratio at 1 h ([2]; Muscle): 101 ± 25
- tissue to tissue ratio at 3 h ([2]; Muscle): 210 ± 90
- tissue to tissue ratio at 24 h ([2]; Muscle): 72 ± 59
- tissue to tissue ratio at 1 h ([2]; Pancreas): 3.5 ± 0.8
- tissue to tissue ratio at 3 h ([2]; Pancreas): 21 ± 1
- tissue to tissue ratio at 24 h ([2]; Pancreas): 16 ± 2
- tissue to tissue ratio at 1 h ([2]; Salivary glands): 72 ± 13
- tissue to tissue ratio at 24 h ([2]; Salivary glands): 26 ± 4
- tissue to tissue ratio at 1 h ([2]; Small intestine): 12 ± 4
- tissue to tissue ratio at 3 h ([2]; Small intestine): 42 ± 9
- tissue to tissue ratio at 24 h ([2]; Small intestine): 27 ± 6
- tissue to tissue ratio at 24 h ([2]; Spleen): 30 ± 16
- tissue to tissue ratio at 1 h ([2]; Stomach): 10 ± 3
- tissue to tissue ratio at 3 h ([2]; Stomach): 29 ± 12
- tissue to tissue ratio at 24 h ([2]; Stomach): 61 ± 52

SMILES: O=C([O-])CN(CCN(CC(=O)[O-])Cc1cc(CCC(=O)NCCCCCC(=O)NCCCC[C@H](NC(=O)N[C@@H](CCC(=O)O)C(=O)O)C(=O)O)ccc1[O-])Cc1cc(CCC(=O)O)ccc1[O-].[68Ga+3].[OH3+] [^68Ga-PSMA-11]
- activity uptake in the kidneys relative to tumors [3]: 20 fold

SMILES: O=C([O-])CN1CCN(CC(=O)[O-])CCN(CC(=O)NC[C@H]2CC[C@H](C(=O)N[C@@H](Cc3ccc4ccccc4c3)C(=O)NCCCC[C@H](NC(=O)N[C@@H](CCC(=O)O)C(=O)O)C(=O)O)CC2)CCN(CC(=O)[O-])CC1.[68Ga+3] [^68Ga-PSMA-617]
- activity uptake in the kidneys relative to tumors [3]: 8 fold

SMILES: CC(C)C[C@H](NC(=O)C[C@H](O)[C@H](CC(C)C)NC(=O)[C@H](Cc1c[nH]cn1)NC(=O)CNC(=O)[C@@H](NC(=O)[C@H](C)NC(=O)[C@H](Cc1c[nH]c2ccccc12)NC(=O)[C@H](CCC(N)=O)NC(=O)[C@@H](Cc1ccccc1)NC(=O)CCOCCOCCOCCOCCOCCOCCNC(=O)[C@H](CCCCNC(=O)CN1CCN(CC(=O)O)CCN(CC(=O)O)CC1)NC(=O)CCCCCCCNC(=O)CC[C@H](NC(=O)N[C@@H](CCC(=O)O)C(=O)O)C(=O)O)C(C)C)C(N)=O [compound 6, Glu-Urea-Glu-Aoc-Lys(NOTA)-(PEG)6-RM26]
- fold change of IC50 for PSMA, heterodimer vs monomer ([4]; dimerization effect): 5 fold

SMILES: CC(C)C[C@H](NC(=O)C[C@H](O)[C@H](CC(C)C)NC(=O)[C@H](Cc1c[nH]cn1)NC(=O)CNC(=O)[C@@H](NC(=O)[C@H](C)NC(=O)[C@H](Cc1c[nH]c2ccccc12)NC(=O)[C@H](CCC(N)=O)NC(=O)[C@@H](Cc1ccccc1)NC(=O)CCOCCOCCOCCOCCOCCOCCNC(=O)[C@H](CCCCNC(=O)CN1CCN(CC(=O)O)CCN(CC(=O)O)CC1)NC(=O)CCCCCCCNC(=O)CC[C@H](NC(=O)N[C@@H](CCC(=O)O)C(=O)O)C(=O)O)C(C)C)C(N)=O [natIn-6, metal not drawn]
- IC50 ([4]; read-out: IC50 towards PSMA, PC3-PIP cells, 4 °C, 5 h, radioligand 111In-PSMA-617, GRPR blocked, natIn-loaded conjugates): 824 ± 230 nM
- fold change of IC50 for GRPR, heterodimer vs monomer ([5]; dimerization effect): 10 fold
- IC50 ([5]; read-out: IC50 towards GRPR, PC3-PIP cells, 4 °C, 5 h, PSMA blocked, natIn-loaded conjugates): 4 ± 1 nM
